Molecular target: NY-ESO-1 peptide presented in the stimulated PBMC culture
Assay: cell-based or functional assay

- percent of CD8+ T cells CD137+/NGFR+ after antigen stimulation (% of CD8+ T cells): 0.69
- percent of CD8+ T cells IFNγ+/NGFR+ after antigen stimulation (% of CD8+ T cells): 0.47
- percent of CD8+ T cells TNFα+/NGFR+ after antigen stimulation (% of CD8+ T cells): 0.41
Substance: NY-ESO TCR (clone 1G4)

Reference: US20220308061A1
